Results taken from US20250296996A1 (BROADWING BIO, published 2025).

T1: P60 (huANGPTL7-Fibrinogen-his) (human, UniProt O43827 129-343)
T1 construct: also called human ANGPTL7 fibrinogen domain; not shown: C-terminal short linker and His tag
T1 sequence: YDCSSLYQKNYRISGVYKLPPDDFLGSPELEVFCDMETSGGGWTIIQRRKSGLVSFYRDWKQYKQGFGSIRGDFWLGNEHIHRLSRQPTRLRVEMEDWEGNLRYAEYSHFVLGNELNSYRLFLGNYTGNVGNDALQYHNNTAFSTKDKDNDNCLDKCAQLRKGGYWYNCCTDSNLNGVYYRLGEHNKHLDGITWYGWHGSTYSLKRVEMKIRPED

T2: P66 (rabbit ANGPTL7-his) (rabbit, UniProt G1T4P1 27-344)
T2 construct: mature; also called rabbit ANGPTL7 protein
T2 sequence: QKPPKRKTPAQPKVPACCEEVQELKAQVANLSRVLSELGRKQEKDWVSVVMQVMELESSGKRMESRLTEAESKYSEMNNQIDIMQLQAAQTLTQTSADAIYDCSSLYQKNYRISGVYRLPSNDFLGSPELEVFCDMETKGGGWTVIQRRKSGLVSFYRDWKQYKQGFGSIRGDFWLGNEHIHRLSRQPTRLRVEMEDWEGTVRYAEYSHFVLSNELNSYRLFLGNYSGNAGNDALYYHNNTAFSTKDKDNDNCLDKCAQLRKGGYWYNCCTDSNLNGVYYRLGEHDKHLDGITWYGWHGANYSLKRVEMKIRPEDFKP

T3: muANGPTL7-his (R&D Systems) (mouse, UniProt Q8R1Q3 22-337, limits assumed)
T3 construct: Bought protein; also called mouse ANGPTL7 protein
T3 sequence (looked up): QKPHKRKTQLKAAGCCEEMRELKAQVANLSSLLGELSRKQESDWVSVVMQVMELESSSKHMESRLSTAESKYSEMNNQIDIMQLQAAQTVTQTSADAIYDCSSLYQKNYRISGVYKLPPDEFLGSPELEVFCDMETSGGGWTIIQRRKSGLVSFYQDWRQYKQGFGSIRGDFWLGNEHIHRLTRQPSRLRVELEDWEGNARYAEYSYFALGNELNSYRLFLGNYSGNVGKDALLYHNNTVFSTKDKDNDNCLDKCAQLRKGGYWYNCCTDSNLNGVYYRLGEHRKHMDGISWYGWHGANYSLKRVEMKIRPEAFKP

T4: Pext-01 (huANGTPL7-FLAG multimer) (human, UniProt O43827 27-346)
T4 construct: also called PExt-1; human wild type ANGPTL7 multimer; not shown: FLAG tag
T4 sequence: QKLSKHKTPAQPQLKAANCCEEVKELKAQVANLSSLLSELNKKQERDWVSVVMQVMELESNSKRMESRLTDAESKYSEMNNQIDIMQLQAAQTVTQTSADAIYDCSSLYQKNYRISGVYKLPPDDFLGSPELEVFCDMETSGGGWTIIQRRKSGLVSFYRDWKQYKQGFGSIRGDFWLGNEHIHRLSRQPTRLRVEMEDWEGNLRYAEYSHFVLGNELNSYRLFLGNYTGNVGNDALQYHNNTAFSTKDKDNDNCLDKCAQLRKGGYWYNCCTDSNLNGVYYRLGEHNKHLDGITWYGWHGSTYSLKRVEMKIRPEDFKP

T5: P62 (huANGPTL7-his) (human, UniProt O43827 27-346)
T5 construct: not shown: C-terminal short linker and His tag
T5 chain: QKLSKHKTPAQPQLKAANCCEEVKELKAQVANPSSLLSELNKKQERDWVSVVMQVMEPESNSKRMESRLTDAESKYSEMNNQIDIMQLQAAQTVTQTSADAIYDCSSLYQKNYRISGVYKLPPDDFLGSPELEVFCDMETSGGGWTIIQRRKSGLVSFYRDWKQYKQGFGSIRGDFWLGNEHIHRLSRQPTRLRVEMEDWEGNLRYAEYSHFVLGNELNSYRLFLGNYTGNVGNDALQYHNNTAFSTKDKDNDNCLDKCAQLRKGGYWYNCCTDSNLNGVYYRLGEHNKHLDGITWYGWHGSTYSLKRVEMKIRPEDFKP


Columns and labels:
[1] = target: T1, P60 (huANGPTL7-Fibrinogen-his); assay: BLI Octet HTX; IgG on AHC sensor; P60 at 200 nM
Procedure: (§1) ANGPTL7 Antibody Kinetics. Experiments were conducted to determine the reactivity and dissociation constants (KD) of anti-ANGPTL7 antibodies with the human fibrinogen domain of the ANGPTL7 protein. Binding experiments were performed on Octet HTX (ForteBio) in 1×PBS, pH 7.4, 0.1 mg/ml BSA, 0.05% Sodium Azide, and 0.02 Tween 20. Antibodies at a concentration of 50 nM were loaded on pre-hydrated AHC biosensors for 5 min. The loaded sensors were dipped into monovalent P60 (huANGPTL7-Fibrinogen-his) at a concentration of 200 nM for 5 min association, followed by 10 min dissociation. […] Responses (nm) at the end of association were also determined (Table 2).

[2] = target: T1, P60 (huANGPTL7-Fibrinogen-his); assay: BLI Octet HTX; IgG on AHC sensor; P60 at 200 nM; 1:1 fit
Procedure: as §1

[3] = target: T2, P66 (rabbit ANGPTL7-his); assay: BLI Octet HTX; IgG on AHC sensor; P66 at 200 nM; 1:1 fit
Procedure: (§2) Experiments were also conducted to determine the reactivity and dissociation constants (KA) of anti-ANGPTL7 antibodies with the rabbit ANGPTL7 protein. Binding experiments were performed on Octet HTX (ForteBio) in Rx PBS, pH 7.4, 0.1 mg/mi BSA, 0.05% Sodium Azide, and 0.02% Tween 20. Antibodies at a concentration of 50 nM were loaded on pre-hydrated AHC biosensors for 5 min. The loaded sensors were dipped into monovalent P66 (rabbit ANGPTL7-his) at a concentration of 200 nM for 5 min of association, followed by 10 min of dissociation. […] Responses (nm) at the end of association were also determined (Table 6).

[4] = target: T3, muANGPTL7-his (R&D Systems); assay: BLI Octet HTX; IgG on AHC sensor; muANGPTL7-his at 200 nM
Procedure: as §2, with “(KD)” for “(KA)”, “mouse” for “rabbit”, “1×PBS,” for “Rx PBS,”, “[…].” for “min.”, “muANGPTL7-his (R&D Systems)” for “P66 (rabbit ANGPTL7-his)”, “5).” for “6).”

[5] = target: T3, muANGPTL7-his (R&D Systems); assay: BLI Octet HTX; IgG on AHC sensor; muANGPTL7-his at 200 nM; 1:1 fit
Procedure: as §2, with “(KD)” for “(KA)”, “mouse” for “rabbit”, “1×PBS,” for “Rx PBS,”, “[…].” for “min.”, “muANGPTL7-his (R&D Systems)” for “P66 (rabbit ANGPTL7-his)”, “5).” for “6).”

[6] = target: T4, Pext-01 (huANGTPL7-FLAG multimer); assay: BLI Octet HTX; IgG on AHC sensor; Pext-01 at 100 nM; 1:1 fit; apparent KD
Procedure: Experiments were also conducted to determine the reactivity and dissociation constants (KD) of anti-ANGPTL7 antibodies with the human ANGPTL7 multimer protein. Binding experiments were performed on Octet HTX (ForteBio) in 1×PBS, pH 7.4, 0.1 mg/ml BSA, 0.05% Sodium Azide, and 0.02% Tween 20. Antibodies at a concentration of 50 nM were loaded on pre-hydrated AHC biosensors for 5 mi. The loaded sensors were dipped into Pext-01 (huANGTPL7-FLAG) at a concentration of 100 nM for 5 min of association, followed by 10 min of dissociation. […] Responses (nm) at the end of association were also determined (Table 7).

[7] = target: T5, P62 (huANGPTL7-his); assay: BLI Octet HTX; IgG on AHC sensor; P62 0.343-250 nM; global 1:1 fit
Procedure: Experiments were also conducted to determine the reactivity and dissociation constants (KD) of anti-ANGPTL7 antibodies with the human ANGPTL7-his protein. Binding experiments were performed on Octet HTX (ForteBio) in 1×PBS, pH 7.4, 0.1 mg/mi BSA, 0.05% Sodium Azide, and 0.02% Tween 20. To measure monovalent binding kinetics, antibodies at a concentration of 50 nM were loaded on pre-hydrated AHC biosensors for 5 min. The loaded sensors were dipped into monovalent P62 (huANGPTL7-his) at a range of concentration from 0.343-250 nM (a serial 3-fold dilution) for 5 min association, followed by 10 min dissociation.

[8] = target: T2, P66 (rabbit ANGPTL7-his); assay: BLI Octet HTX; IgG on AHC sensor; P66 at 200 nM
Procedure: as §2

Binder | binding result [1] | Response [2] [nm] | Kd [3] [nM] | Response [3] [nm] | binding result [4] | Response [5] [nm] | Kd [6] [nM] | Response [6] [nm] | Kd [2] [nM] | koff [2] [s⁻¹] | kon [2] [M⁻¹ s⁻¹] | koff [3] [s⁻¹] | kon [3] [M⁻¹ s⁻¹] | Kd [7] [nM] | koff [7] [s⁻¹] | kon [7] [M⁻¹ s⁻¹] | binding result [7] | binding result [8]
ATX-P-438 (antibody, human IgG1, kappa, N297A, V domains shown, Full chains (VH + hIgG1-Agly-Fc)) VH: QVQLVESGGGVVQPGRSLRLSCAASGFTFSSYGMHWVRQAPGKGLEWVAIISYDGNNKYYADSVKGRFTISRDNSKNTLYLQMNSLRDEDTAVYYCAKERGYSSSSGYYYYYMDVWGKGTTVTVSS VL: EIVLTQSPGTLSLSPGERATLSCRASQSVSRSYLAWYQQKPGQAPRLLIIGASTRATGIPDRFSGSGSGTDFTLTISRLEPEDFAVYYCQQGQVIPPTFGQGTKVEIKR | no binding (tested: 200 nM) | 0.08 | 7.16 | 0.42 | no binding (tested: 200 nM) | 0.01 | 65.3 | 0.6 | – | – | – | – | – | – | – | – | – | –
ATX-P-433 (antibody, IgG1, V domains shown, Full chains (VH + hIgG1-Agly-Fc)) VH: EVQLVESGGGLVQPGRSLRLSCAASGFTFDDFAMHWVRQGPGKGLEWVSGIGWNSGSIGYADSVKGRFTISRDNAKNSLYLQMNSLRAEDTALYYCAKAPDYGDYYFDYWGQGTLVTVSS VL: DIQMTQSPSSLSASVGDRVTITCRASQSISIYLNWYQQKPGTAPKLLIYAASSLQSGVPSRFSGSGSGTDFTLTISSLQPEDFAAYYCQQSYTTPLTFGGGTKVEIKR | – | 0.66 | 7.02 | 0.9 | – | – | – | 0.72 | 10.9 | 0.00243 | 223000 | 0.000727 | 104000 | 1.3 | 0.00056 | 431000 | – | –
ATX-P-447 (antibody, human IgG1, kappa, N297A, V domains shown, Full chains (VH + hIgG1-Agly-Fc)) VH: EVQLVESGGGLVQPGGSLRLSCAASGFTISDYDMHWVRQTTGKGLEWVSGIDPDGDTYYPGSLKGRFTISRENAKNSLYLQMNSLRAGDTAVYYCTRGEDSSSSEDAFDIWGQGTMVTVSS VL: not shown | no binding (tested: 200 nM) | 0.08 | 3.33 | 0.65 | no binding (tested: 200 nM) | 0.12 | – | 0.91 | – | – | – | – | – | – | – | – | binds | –
ATX-P-444 (antibody, human IgG1, kappa, N297A, V domains shown, Full chains (VH + hIgG1-Agly-Fc)) VH: EVQLVESGGGLVQPGGSLRLSCAASGFTLSVYDMHWVRQVSGKGLEWVSGIDPDGDTYYPGSVKGRFTISRENAKNSLYLQMNSLRVGDTAVYYCLRGEESNSSEDGFDIWGQGTMVTVSS VL: not shown | no binding (tested: 200 nM) | 0.14 | – | – | no binding (tested: 200 nM) | 0.01 | – | 0.7 | – | – | – | – | – | – | – | – | – | –
ATX-P-446 (antibody, human IgG1, kappa, N297A, V domains shown, Full chains (VH + hIgG1-Agly-Fc)) VH: EVQLVESGGGLVQPGGSLRLSCAASGFTLSSYDMHWVRQVIGKGLEWVSGIDPDGDTYYPGSVKGRFTISREDAKNSLYLQMNSLRAGDTAVYYCTRGEDNSSSEDAFDIWGQGTMVTVSS VL: not shown | no binding (tested: 200 nM) | 0.09 | 3.19 | 0.41 | no binding (tested: 200 nM) | 0.05 | – | 0.75 | – | – | – | – | – | – | – | – | – | –
ATX-P-435 (antibody, human IgG1, kappa, N297A, V domains shown, Full chains (VH + hIgG1-Agly-Fc)) VH: QLQLQESGPGLVKPSETLSLTCTVSGGSISSSSSYWGWIRQPPGKGLEWIGSIYYSGSTYSNPSLKSRVTISVDTSKNQFSLKLSSVTAADTAVYYCARQYISGTEYFQYWGQGTLVTVSS VL: EIVLTQSPATLSLSPGERATLSCRASQSVSNYLAWYQQKPGQAPRLLIYDASNRATGIPARFSGSGSGTDFTLTISSLEPEDFAVYYCQQRSNWPSFGQGTRLEIKR | – | 0.45 | – | 0.01 | no binding (tested: 200 nM) | 0.01 | – | 0.45 | 77 | – | – | – | – | – | – | – | – | no binding (tested: 200 nM)
ATX-P-429 (antibody, human IgG1, kappa, N297A, V domains shown, Full chains (VH + hIgG1-Agly-Fc)) VH: QVQLVQSGAEVKKPGASVKVSCKASGYTFSSYGISWVRQAPGQGLEWMGWISAYNGNTNYAQNLRGRVAMTTDTSTTTAYMELRSLRSDDTAVYYCARVSLVWFGELPRGFDYWGQGTLVTVSS VL: not shown | – | 0.52 | – | 0.04 | no binding (tested: 200 nM) | 0 | – | 0.58 | 75.3 | – | – | – | – | – | – | – | – | no binding (tested: 200 nM)
